Source: patent US20240254227A1 (Alector, published 2024)
Substitutions are numbered along the chain they refer to.

T1: human CD300LB on primary human monocytes (human, UniProt A8K4G0 18-201)
T1 construct: Endogenous protein on primary cells; that the target is CD300LB is inferred from the antibodies being anti-CD300LB antibodies; also called Monocyte donor 1281; Monocyte donor 1282
T1 sequence: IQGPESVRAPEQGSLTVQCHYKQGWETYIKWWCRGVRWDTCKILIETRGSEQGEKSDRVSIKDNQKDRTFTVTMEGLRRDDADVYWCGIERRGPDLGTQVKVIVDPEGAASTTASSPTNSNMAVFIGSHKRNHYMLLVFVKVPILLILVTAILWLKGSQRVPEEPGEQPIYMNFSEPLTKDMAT

T2: human CD300C-Fc (human)
T2 construct: hIgG1-Fc fusion; the entry is the whole fusion chain
T2 chain: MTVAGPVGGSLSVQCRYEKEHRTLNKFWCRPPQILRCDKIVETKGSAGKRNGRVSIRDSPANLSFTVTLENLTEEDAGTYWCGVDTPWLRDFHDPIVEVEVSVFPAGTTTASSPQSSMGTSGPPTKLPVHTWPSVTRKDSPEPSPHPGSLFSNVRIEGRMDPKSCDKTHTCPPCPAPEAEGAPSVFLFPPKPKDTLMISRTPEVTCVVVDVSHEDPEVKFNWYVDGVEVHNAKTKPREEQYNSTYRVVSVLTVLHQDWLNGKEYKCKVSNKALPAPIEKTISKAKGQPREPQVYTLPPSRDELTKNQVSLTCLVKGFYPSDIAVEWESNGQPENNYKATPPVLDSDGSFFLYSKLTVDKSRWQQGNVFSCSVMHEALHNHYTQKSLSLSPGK

T3: human CD300D-Fc (human)
T3 construct: hIgG1-Fc fusion; the entry is the whole fusion chain
T3 chain: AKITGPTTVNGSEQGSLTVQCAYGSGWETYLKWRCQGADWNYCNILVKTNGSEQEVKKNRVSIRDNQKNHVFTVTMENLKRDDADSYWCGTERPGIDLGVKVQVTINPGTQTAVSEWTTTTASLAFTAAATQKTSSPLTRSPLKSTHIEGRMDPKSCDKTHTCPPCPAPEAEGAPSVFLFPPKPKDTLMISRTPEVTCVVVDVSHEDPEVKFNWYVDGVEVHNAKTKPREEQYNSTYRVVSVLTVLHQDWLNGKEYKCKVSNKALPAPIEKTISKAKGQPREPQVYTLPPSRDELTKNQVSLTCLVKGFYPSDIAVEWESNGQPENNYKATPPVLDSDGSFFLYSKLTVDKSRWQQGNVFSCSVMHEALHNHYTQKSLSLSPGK

B1: anti-CD300LB antibody CD-07 (antibody, V domains shown)
VH: QVQLVQSGAEVKKPGASVKVSCKASGYTFTNYRMHWVRQAPGQGLEWMGWINPNSGGTIYAQKFQGRVTMTRDTSTSTVYMELSSLRSEDTAVYYCARDLDYWGQGTLVTVSS
VL: DIQMTQSPSSLSASVGDRVTITCQASQDISNYLNWYQQKPGKAPKLLIYGASSLQSGVPSRFSGSGSGTDFTLTISSLQPEDFATYYCQQSYSTPWTFGPGTKVEIK
B2: anti-CD300LB antibody CD-06 (antibody, V domains shown)
VH: QVQLVQSGAEVKKPGASVKVSCKASGYTFTTYAVHWVRQAPGQGLEWMGIVNPNSGGTNYAQKFQGRVTMTRDTSTSTVYMELSSLRSEDTAVYYCARDIVPMNNFYNYYYGMDVWGQGTTVTVSS
VL: B1 VL with Q24R, D28S, N31S, G50A, A51T, S53T, S93R, T94I, W96Y, P100Q
B3: anti-CD300LB antibody CD-05 (antibody, V domains shown)
VH: QVQLVQSGAEVKKPGASVKVSCKASGYTFSRYYINWVRQAPGQGLEWMGWINPNSGGTNYAQKFQGRVTMTRDTSTSTVYMELSSLRSEDTAVYYCTTDQLRFGKTGPYYGMDVWGQGTTVTVSS
VL: B1 VL with Q24R, D28N, S30G, N31T, G50A, T94D, P95T, W96L, P100G
B4: anti-CD300LB antibody CD-03 (antibody, V domains shown)
VH: EVQLQQSGPELVKPGASVKISCKASGYTFTDYYINWVRQSHGKSLECIGDINPNNGGTNYNQKFKGKATLTVDRSSNTAYMEFRSLTFDDSALYYCAAEGAYWGQGTLVTVSA
VL: not shown
B5: anti-CD300LB antibody CD-01 (antibody, V domains shown)
VH: RVQLQQSGAELVRPGASVTLSCKASGFTFTDFEMHWVKKTPVHGLEWIGAIDPESGNTAYNQKFRGKATLTADKSSSTAYMELRYLTSEDSAVYYCTPLISGADYWGQGTTLTVSS
VL: DVVMTQSPLSLPVSLGDQASISCRSSQSLVHSDGNTYLYWYLQKPGQSPKLLIYKVSNRFSGVPDRFSGSGSGTDFTFKISRVGAEDLGVYFCSQSTHVPWTFGGGTKLEII
B6: anti-CD300LB antibody CD-02 (antibody, V domains shown)
VH: QVQLQQPGAELVRPGSSVKLSCQASGYTFTNYWMHWVRQRPIQGLEWIGNIDPSDSETHYNQKFKDRATLTVDKSSSTAYMQLSSLTSEDSAVYYCARSGVYDDEGGDYWGQGTTLTVSS
VL: ENVLTQSPAIMSASPGEKVTMTCSASSSVSYIHWYQQKSSTSPKLWIYDTSKLASGVPGRFSGSGSGNSYSLTISSMETEDVATYYCFQGSGYPLTFGAGTKLELK

What follows are binders tested against T1, human CD300LB on primary human monocytes (assay: flow cytometry, primary human monocytes donor 1283, 10 ug/mL antibody, isotype control subtracted).
Procedure: Human monocytes from various donors were isolated from whole blood using RosetteSep Human Monocyte Enrichment Cocktail (Stemcell technologies) and Ficoll centrifugation per manufacturer protocols. After lysing red blood cells with ACK lysing buffer, monocytes were resuspended in complete media (RPMI, 10% FBS, Pen/Strep, L-glutamine, HEPES, non-essential amino acid, Sodium pyruvate). To obtain macrophages from these isolated monocytes, 100 ng/ml human M-CSF and 8% v/v human serum were added to the cells for 5-7 days. Cells were counted on the day of the experiment and plated at 100,000 cells per well in a round-bottom 96 well plate. Cells were incubated with TruStain Fc block and 10 μg/mL antibody for 1 hour on ice before washing with 250 μL ice cold PBS twice. Cells were then incubated with the appropriate APC-conjugated secondary antibodies for 20 minutes in the dark on ice. Finally, cells were washed twice with ice cold FACS buffer and then resuspended in 100 μL FACS buffer containing 1% propidium iodide. Samples were immediately analyzed using a BD FACSCanto flow cytometer. The gMFI was calculated using FlowJo software minus the gMFI of the appropriate isotype control.

gMFI	Binder
47 gMFI	B1
2470 gMFI	B2
935 gMFI	B3

Target: T2, human CD300C-Fc
Assay: SPR (Carterra LSA), antibody immobilised, Fc fusion at 300 or 600 nM
Procedure: (§1) Binding of mouse anti-CD300LB IgG1 antibodies of the present disclosure to human and murine CD300 orthologs were evaluated by surface plasmon resonance (SPR) using a Carterra LSA instrument (Carterra, Salt Lake City, UT). […] A HC200M sensor chip (Carterra) was activated using the single channel flow cell with a 7-minute injection of a 1:1:1 mixture of 100 mM MES pH 5.5, 100 mM sulfo-NHS, 400 mM EDC (all reconstituted in MES pH 5.5; 100 μL of each mixed in vial immediately before running assay). After switching to the multi-channel array flow cell, the antibodies were injected over the activated chip in a 96-spot array for 10 minutes. The remaining unconjugated active groups on the chip were then blocked by injecting 1M Ethanolamine pH 8.5 (Carterra) for 7 minutes using the single channel flow cell. After priming with running buffer (HBS-TE, Carterra) with 0.5 mg/ml BSA (Sigma), the immobilized anti-CD300LB antibodies were tested for their ability to bind human and mouse recombinant CD300LB extracellular domains. Human CD300 family members and mouse CD300A were hIgG1-Fc fusions, while mouse CD300LB, mouse CD300C, mouse CD300D, and mouse CD300E were mouse IgG2a-Fc fusions (R&D Systems). Binding was assessed by injecting each analyte over the entire antibody array using the single channel flow cell. CD300 analytes were diluted to 300 nM or 600 nM in running buffer and injected in series without regeneration. Two or three buffer blanks were run between each mouse or human ortholog, respectively. Data were processed and analyzed using NextGenKIT high-throughput kinetics analysis software (Carterra).
(§2) Results of anti-CD300LB antibody binding to human CD300 family members is provided below in Table 7.

SPR binding (control subtracted)	Binder
0.165	B4
0.06	B3
0.805	B5
0.425	B6

Target: T3, human CD300D-Fc
Assay: as above
Procedure: as §1, §2

SPR binding (control subtracted)	Binder
0.4	B4
0.115	B3
0.575	B5
0.76	B6
